For test [1], the target named is T1, recombinant peptide consisting of amino acids 262-534 of tenascin-W (human, UniProt Q9UQP3 262-534).
T1 construct: also called recombinant tenascin-W peptide used to isolate the G10 antibody
T1 sequence: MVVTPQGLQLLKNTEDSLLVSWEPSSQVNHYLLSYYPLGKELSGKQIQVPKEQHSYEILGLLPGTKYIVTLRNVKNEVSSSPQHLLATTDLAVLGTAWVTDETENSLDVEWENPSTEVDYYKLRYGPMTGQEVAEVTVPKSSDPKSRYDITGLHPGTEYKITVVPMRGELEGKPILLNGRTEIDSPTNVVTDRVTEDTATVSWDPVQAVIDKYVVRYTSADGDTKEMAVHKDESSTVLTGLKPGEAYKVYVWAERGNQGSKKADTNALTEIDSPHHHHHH
Briefly: Biacore, tenascin-W 262-534 on a CM-5 chip, scFv. On the procedure: A monomeric fraction of the purified G10 antibody was analyzed by surface plasmon resonance (BIAcore, 3000 system). A recombinant peptide consisting of amino acids 262-534 of tenascin-W was covalently coupled to the surface of the CM-5 sensor Chip. Twenty-five microliters of each sample were injected at the flow rate of 10 μL/min. The regeneration of the chip was performed with 5 μL of 10 mM glycine-HCl, pH 2.5 (GE Healthcare).

Test [2] has as its target T2, catalytic domain of human MMP3 (amino acids 100-273), recombinant (human, UniProt P08254 100-273, biotinylated (in the ELISA)).
T2 construct: range 100-273; also called HsMMP3; human MMP3 catalytic domain
Briefly: ELISA on biotinylated catalytic domain, scFv.

T2 sequence (P08254 100-273 limits assumed): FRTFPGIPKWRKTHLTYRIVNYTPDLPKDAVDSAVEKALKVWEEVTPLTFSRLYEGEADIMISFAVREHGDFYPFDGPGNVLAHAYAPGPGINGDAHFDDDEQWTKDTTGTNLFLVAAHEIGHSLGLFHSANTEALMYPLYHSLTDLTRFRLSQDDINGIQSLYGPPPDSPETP

B1: antibody G10 in scFv format (scFv, V domains shown)
VH: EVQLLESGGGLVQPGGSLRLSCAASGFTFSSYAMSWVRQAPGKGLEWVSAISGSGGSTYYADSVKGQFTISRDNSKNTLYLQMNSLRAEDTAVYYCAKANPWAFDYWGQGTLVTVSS
VL: SELTQDPAVSVALGQTVRITCQGDSLRSYYASWYQQKPGQAPVLVIYGKNNRPSGIPDRFSGSSSGNTASLTITGAQAEDEADYYCNSSGSQRSPVVFGGGTKLTVL
notes: The monomeric fraction was used in Biacore
Consider B1, for which the binding result in test [1] is on record as “binds”.

B2: anti-human MMP3 antibody CH01 in scFv format (scFv, V domains shown)
VH: EVQLLESGGGLVQPGGSLRLSCAASGFTFSPYAMSWVRQAPGKGLEWVSAITGQGGVTYYADSVKGRFTISRDNSKNTLYLQMNSLRAEDTAVYYCAKISSFHFDYWGQGTLVTVSS
VL: EIVLTQSPGTLSLSPGERATLSCRASQSVSSHHLAWYQQKPGQAPRLLIYDASSRATGIPDRFSGSGSGTDFTLTISRLEPEDFAVYYCQQPRGAPTTFGQGTKVEIK
notes: The scFv is myc-tagged (detected with anti-myc 9E10); also called scFv(CH01)
On to B2, for which the binding result in test [2] is “binds”.
